B1: PLAGL1 (parent)
chain: LELGSTEVLLDHLKAHAEEKPPSG

Variants of: B1
Assay: protein stability index of a GFP-peptide fusion (GPS, HEK-293T) (PSI 1-6); higher = more stable
Conditions: c terminus: a fixed tail appended
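Also: lentivirally expressed fusions sorted by FACS into six bins by GFP to DsRed ratio, PSI derived from sequencing read proportions per bin multiplied by bin number.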

Protein stability index of substitutions, site by site:
L9: I 4.45, S 5.72, R 4.63, E 5.92, P 5.57, D 4.91, F 4.79, A 5.08, T 5.58, Q 5.84, W 4.11, N 5.71, K 4.99, V 4.97, M 4.77, C 5.04, Y 4.83, G 5.6, H 5.15
K14: F 3.5, E 5.5, Q 4.59, I 4.55, A 4.93, V 4.63, M 3.6, P 5.32, D 5.56, T 5.1, R 3.5, H 5.15, C 4.69, S 5.04, G 5.39, Y 4.14, N 5.04, L 4.61, W 4.1
E19: I 3.14, G 2.45, H 3.61, T 3.55, W 3.23, C 3.12, K 3.55, R 3.58, S 3.65, P 4.28, D 4.48, N 4.03, L 2.64, A 3.73, M 3.41, Q 3.89, F 2.33, V 3.27, Y 3.32
L10: Q 5.41, S 5.42, C 5.35, G 5.66, E 4.86, F 5.3, N 5.74, W 4.81, P 5.36, V 5.1, A 5.72, D 5.35, R 5.62, T 5.87, H 5.35, K 5.83, M 5.42, Y 5.26, I 4.07
S5: Y 3.33
P22: N 4.95, W 3.38, E 5.08, A 4.49, F 3.35, D 4.88, Y 3.9, C 4.58, G 4.4, M 3.85, S 4.79, L 3.9, R 4.1, I 4.06, H 4.03, T 4.88, Q 4.85, K 4.25, V 3.81
S23: K 4.28, A 3.76, D 5.1, I 4.1, C 4.35, H 4.17, F 3.72, G 4.43, M 4.15, E 4.89, N 4.47, L 4.22
A17: S 4.01, N 4.7, M 2.74, Q 4.65, L 3.21, G 4.35, P 4.66, F 2.97, H 4.13, K 4.11, R 4.39, Y 3.4, E 4.67, D 4.66, W 3.35, I 3.37, T 4.16, V 3.88, C 3.74
E18: Q 3.94, K 2.7, D 4.55, I 2.62, L 2.76, F 2.08, W 2.07, N 3.53, C 3.39, P 3.28, S 3.87, R 2.15, V 2.71, A 3.45, Y 3.25, G 2.66, H 3.27, M 2.61, T 3.59
V8: F 3.85, Y 4.62, W 3.79, M 3.54, Q 4.75, I 3.91, E 5.29, T 5, S 4.87, H 4.55, D 5.01, N 4.85, P 4.84, C 4.41, A 4.64, K 4.51, L 3.21, R 4.96
K20: C 4, R 4.26, H 3.59, F 2.9, A 4.56, Q 3.56, D 4.64, S 4.21, G 4.22, L 3.9, P 4.88, Y 3.6, T 4.86, M 4.01, I 3.71, W 4.06, V 4.41, E 5.18, N 4.58
E7: A 4.78, M 3.54, T 4.24, Y 3.77, W 3.04, P 5.07, C 4.27, H 4.39, Q 4.89, V 3.82, K 3.85, R 4.81, L 3.41, D 5.27, I 3.69, S 4.81, N 4.67, G 4.89, F 3.86
A15: N 4.73, S 4.44, V 4.72, G 4.29, L 4.83, D 4.8, I 4.24, R 3.89, F 4.18, K 3.87, Y 4.04, P 5.41, E 5.05, M 4.48, T 5.14, Q 4.63, C 4.04, H 4.37, W 3.54
T6: L 2.84, K 5.38, H 5.42, W 2.89, G 4.75, R 4.57, M 3.74, Q 5.22, C 4.38, F 3.62, P 4.25, E 5.49, Y 3.76, S 4.71, N 4.76, I 3.4, A 3.58, V 4.24
H16: M 3.29, N 5.11, L 4.08, Y 3.33, K 5.08, P 5.07, V 4.05, C 4.2, A 4.24, D 4.25, E 4.6, Q 4.53, S 4.58, T 4.29, W 3.02, F 3.42, G 3.88, I 3.93, R 4.28
D11: F 1.77, I 1.25, M 2.2, V 1.86, G 3.56, W 3.03, T 3.07, P 5.43, A 4, E 3.56, S 3.54, H 3.79, L 1.79, R 3.46, K 3.65, N 4.29, Y 2.7, Q 2.17, C 2.36
H12: L 2.21, N 5.15, R 4.37, W 3, M 3.06, S 4.9, P 5.48, F 2.71, G 5.16, Q 4.82, K 3.99, V 3.26, A 3.98, T 4.62, E 5.54, Y 2.44, D 5.18, C 4.32, I 3.02
P21: R 4.47, L 3.6, V 4.41, C 3.55, T 4.56, S 4.53, Y 3.39, G 4.45, N 4.85, K 5.04, H 4.57, A 4.8, I 4.22, M 4.4, D 4.92, W 3.53, F 3.72, Q 4.84, E 5.38
L13: E 5.3, W 3.78, C 4.84, V 4.36, S 5.6, R 5.6, P 5.35, M 5.09, T 5.46, G 5.46, K 5.68, F 4.22, N 5.64, Q 5.76, I 4.97, A 5.38, Y 3.9, H 5.61, D 5.87
